Among the data in patent EP4725969A1 (Latticon (Suzhou) Biopharmaceuticals Co., Ltd., dated 2024) are Kd, koff and kon values, retold here.

The labels stand for the following.
B1: Hu2117HK-Mu01 (Fc fusion)
scFv: EVQLVESGGGLVQPGGSLRLSCAASGFTYSSYGMSWVRQAPGKGLEWVASISGGGSYTKYPDSVKGRFTISRDNSKNTLYLQMNSLRAEDTAVYYCARDYAGFFDVWGQGTLVTVSSGGGGSGGGGSGGGGSDIQMTQSPSSLSASVGDRVTITCRSSQSLVHSNGNTYLHWYQQKPGKSPKLLIYKVSNRFSGVPSRFSGSGSGTDFTLTISSLQPEDFATYFCSQSTHVPYTFGQGTKVEIK
notes: scFv-hIgG1 Fc; not shown: human IgG1 Fc
B2: Hu2117HK-Mu07 (Fc fusion, name in Kabat numbering)
scFv: EVQLVESGGGLVQPGGSLRLSCAASGFTYSSYGMSWVRQAPGKGLEWVASISGGGSYTYYPDSVKGRFTISRDNSKNTLYLQMNSLRAEDTAVYYCARDYAGFFDVWGQGTLVTVSSGGGGSGGGGSGGGGSDIQMTQSPSSLSASVGDRVTITCRSSQSLVHSNGNTYLHWYQQKPGKAPKLLIYKVSNRFSGVPSRFSGSGSGTDFTLTISSLQPEDFATYFCSQSTHVPYTFGQGTKVEIK
notes: as for B1
B3: Hu2117HK-Mu02 (Fc fusion)
scFv: EVQLVESGGGLVQPGGSLRLSCAASGFTYSSYGMSWVRQAPGKGLEWVASISGGGSYTKYPDSVKGRFTISRDNSKNTLYLQMNSLRAEDTAVYYCARDYAGFFDVWGQGTLVTVSSGGGGSGGGGSGGGGSDIQMTQSPSSLSASVGDRVTITCRSSQSLVHSNGNTYLHWYQQKPGKAPKLLIYKVSNRFSGVPSRFSGSGSGTDFTLTISSLQPEDFAVYFCSQSTHVPYTFGQGTKVEIK
notes: as for B1
B4: Hu2117HK-Mu09 (Fc fusion)
scFv: EVQLVESGGGLVQPGGSLRLSCAASGFTYSSYGMSWVRQAPGKGLEWVASISGGGSYTKYGDSVKGRFTISRDNSKNTLYLQMNSLRAEDTAVYYCARDYAGFFDVWGQGTLVTVSSGGGGSGGGGSGGGGSDIQMTQSPSSLSASVGDRVTITCRSSQSLVHSNGNTYLHWYQQKPGKAPKLLIYKVSNRFSGVPSRFSGSGSGTDFTLTISSLQPEDFATYFCSQSTHVPYTFGQGTKVEIK
notes: as for B1
B5: Hu2117HK-Mu14 (Fc fusion)
scFv: EVQLVESGGGLVQPGGSLRLSCAASGFTYSSYGMSWVRQAPGKGLEWVASISGGGSYTKYPGSVKGRFTISRDNSKNTLYLQMNSLRAEDTAVYYCARDYAGFFDVWGQGTLVTVSSGGGGSGGGGSGGGGSDIQMTQSPSSLSASVGDRVTITCRSSQSLVHSNGNTYLHWYQQKPGKAPKLLIYKVSNRFSGVPSRFSGSGSGTDFTLTISSLQPEDFATYFCSQSTHVPYTFGQGTKVEIK
notes: as for B1
B6: Hu2117HK-Mu10 (Fc fusion)
scFv: EVQLVESGGGLVQPGGSLRLSCAASGFTYSSYGMSWVRQAPGKGLEWVASISGGGSYTKYVDSVKGRFTISRDNSKNTLYLQMNSLRAEDTAVYYCARDYAGFFDVWGQGTLVTVSSGGGGSGGGGSGGGGSDIQMTQSPSSLSASVGDRVTITCRSSQSLVHSNGNTYLHWYQQKPGKAPKLLIYKVSNRFSGVPSRFSGSGSGTDFTLTISSLQPEDFATYFCSQSTHVPYTFGQGTKVEIK
notes: as for B1
B7: Hu2117HK-Mu08 (Fc fusion)
scFv: EVQLVESGGGLVQPGGSLRLSCAASGFTYSSYGMSWVRQAPGKGLEWVASISGGGSYTKYADSVKGRFTISRDNSKNTLYLQMNSLRAEDTAVYYCARDYAGFFDVWGQGTLVTVSSGGGGSGGGGSGGGGSDIQMTQSPSSLSASVGDRVTITCRSSQSLVHSNGNTYLHWYQQKPGKAPKLLIYKVSNRFSGVPSRFSGSGSGTDFTLTISSLQPEDFATYFCSQSTHVPYTFGQGTKVEIK
notes: as for B1
B8: Hu2117HK-Mu05 (Fc fusion)
scFv: EVQLVESGGGLVQPGGSLRLSCAASGFTFSSYGMSWVRQAPGKGLEWVASISGGGSYTKYPDSVKGRFTISRDNSKNTLYLQMNSLRAEDTAVYYCARDYAGFFDVWGQGTLVTVSSGGGGSGGGGSGGGGSDIQMTQSPSSLSASVGDRVTITCRSSQSLVHSNGNTYLHWYQQKPGKAPKLLIYKVSNRFSGVPSRFSGSGSGTDFTLTISSLQPEDFATYFCSQSTHVPYTFGQGTKVEIK
notes: as for B1
B9: Hu2117HK-Mu13 (Fc fusion)
scFv: EVQLVESGGGLVQPGGSLRLSCAASGFTYSSYGMSWVRQAPGKGLEWVASISGGGSYTKYPDSVKGRFTISRDNSKNTLYLQMNSLRAEDTAVYYCARDYAGFFDVWGQGTLVTVSSGGGGSGGGGSGGGGSDIQMTQSPSSLSASVGDRVTITCRSSQSLVHSNGNTYLHWYQQKPGKAPKLLIYKVSNRFSGVPSRFSGSGSGTDFTLTISSLQPEDFATYYCSQSTHVPYTFGQGTKVEIK
notes: scFv-hIgG1 Fc; also called Hu2117HK-Mul3; not shown: human IgG1 Fc
B10: Hu2117HK-Mu06 (Fc fusion)
scFv: EVQLVESGGGLVQPGGSLRLSCAASGFTYSSYGMSWVRQAPGKGLEWVSSISGGGSYTKYPDSVKGRFTISRDNSKNTLYLQMNSLRAEDTAVYYCARDYAGFFDVWGQGTLVTVSSGGGGSGGGGSGGGGSDIQMTQSPSSLSASVGDRVTITCRSSQSLVHSNGNTYLHWYQQKPGKAPKLLIYKVSNRFSGVPSRFSGSGSGTDFTLTISSLQPEDFATYFCSQSTHVPYTFGQGTKVEIK
notes: as for B1
B11: Hu2117HK-Mu12 (Fc fusion)
scFv: EVQLVESGGGLVQPGGSLRLSCAASGFTYSSYGMSWVRQAPGKGLEWVASISGGGSYTKYPDSVKGRFTISRDNSKNTLYLQMNSLRAEDTAVYYCARDYAGFFDVWGQGTLVTVSSGGGGSGGGGSGGGGSDIQMTQSPSSLSASVGDRVTITCRSSQSLVHSNGNTYLHWYQQKPGKAPKLLIYKVSNRPSGVPSRFSGSGSGTDFTLTISSLQPEDFATYFCSQSTHVPYTFGQGTKVEIK
notes: as for B1
B12: Hu2117HK-Mu04 (Fc fusion)
scFv: EVQLVESGGGLVQPGGSLRLSCAASGFTYSSYGMSWVRQAPGKGLEWVASISGGGSYTKYPDSVKGRFTISRDNSKNTLYLQMNSLRAEDTAVYYCARDYAGFFDVWGQGTLVTVSSGGGGSGGGGSGGGGSDIQLTQSPSSLSASVGDRVTITCRSSQSLVHSNGNTYLHWYQQKPGKAPKLLIYKVSNRFSGVPSRFSGSGSGTDFTLTISSLQPEDFATYFCSQSTHVPYTFGQGTKVEIK
notes: as for B1
B13: Hu2117HK-Mu11 (Fc fusion)
scFv: EVQLVESGGGLVQPGGSLRLSCAASGFTYSSYGMSWVRQAPGKGLEWVASISGGGSYTKYPDSVKGRFTISRDNSKNTLYLQMNSLRAEDTAVYYCARDYAGFFDVWGQGTLVTVSSGGGGSGGGGSGGGGSDIQMTQSPSSLSASVGDRVTITCRSSQSLVHSNGNTYLHWYQQKPGKAPKLLIYKVSNRDSGVPSRFSGSGSGTDFTLTISSLQPEDFATYFCSQSTHVPYTFGQGTKVEIK
notes: as for B1
B14: Hu2117HK-Mu03 (Fc fusion)
scFv: EVQLVESGGGLVQPGGSLRLSCAASGFTYSSYGMSWVRQAPGKGLEWVASISGGGSYTKYPDSVKGRFTISRDNSKNTLYLQMNSLRAEDTAVYYCARDYAGFFDVWGQGTLVTVSSGGGGSGGGGSGGGGSDVQMTQSPSSLSASVGDRVTITCRSSQSLVHSNGNTYLHWYQQKPGKAPKLLIYKVSNRFSGVPSRFSGSGSGTDFTLTISSLQPEDFATYFCSQSTHVPYTFGQGTKVEIK
notes: as for B1
B15: 2126-Hu-L17 (antibody, IgG1, V domains shown)
VH: QVQLVQSGSELKKPGASVKVSCKASGYTFTDYSMHWVRQAPGQGLEWMGWINTETGEPTYADDFKGRFVFSLDTSVSTAYLQISSLKAEDTAVYFCVRVGRYDYAMDYWGQGTTVTVSS
VL: DIQMTQSPSSLSASVGDRVTITCKASQDVYTAVAWYQQKPGKAPKLLINSASYRQTGVPSRFSGSGSGTDFTLTISSLQPEDFATYYCQQHYSTPPTFGGGTKVEIK
notes: IgG1/Cκ
B16: 2126-Hu-L18 (antibody, IgG1, V domains shown)
VH: QVQLVQSGSELKKPGASVKVSCKASGYTFTDYSMHWVRQAPGQGLEWMGWINTETGEPTYADDFKGRFVFSLDTSVSTAYLQISSLKAEDTAVYFCVRVGRYDYAMDYWGQGTTVTVSS
VL: DIQMTQSPSSLSASVGDRVTITCKASQDVYTAVAWYQQKPGKAPKLLINSASYRYTGVPSRFSGSGSGTDFTLTISSLQPEDFATYYCQQSYSTPPTFGGGTKVEIK
notes: IgG1/Cκ
B17: 2126-Hu-L19 (antibody, IgG1, V domains shown)
VH: QVQLVQSGSELKKPGASVKVSCKASGYTFTDYSMHWVRQAPGQGLEWMGWINTETGEPTYADDFKGRFVFSLDTSVSTAYLQISSLKAEDTAVYFCVRVGRYDYAMDYWGQGTTVTVSS
VL: DIQMTQSPSSLSASVGDRVTITCKASQDVYTAVAWYQQKPGKAPKLLINSASYRYTGVPSRFSGSGSGTDFTLTISSLQPEDFATYYCQQAYSTPPTFGGGTKVEIK
notes: IgG1/Cκ
B18: 2126-Hu-L21 (antibody, IgG1, V domains shown)
VH: QVQLVQSGSELKKPGASVKVSCKASGYTFTDYSMHWVRQAPGQGLEWMGWINTETGEPTYADDFKGRFVFSLDTSVSTAYLQISSLKAEDTAVYFCVRVGRYDYAMDYWGQGTTVTVSS
VL: DIQMTQSPSSLSASVGDRVTITCKASQDVYTAVAWYQQKPGKAPKLLINSASYRYTGVPSRFSGSGSGTDFTLTISSLQPEDFATYYCQQYYSTPPTFGGGTKVEIK
notes: IgG1/Cκ

In one test the target is T1, recombinant human HER2 extracellular domain protein (human, UniProt P04626 23-652).
T1 construct: range 23-652; Range is printed for the immunogen/panning protein; also called ErbB2; recombinant HER2 protein
The test is described as follows: BLI, Protein A capture. A general note: Biolayer interferometry detects binding as a change in optical thickness at a sensor tip.
By Kd is commonly meant the free concentration of one partner at which half of the binding sites on the other are occupied at equilibrium, for simple one-to-one binding. By koff is commonly meant a measure of how fast the partners let go of each other. As usually defined, the kon is the second-order rate constant of association. As to B1, the Kd came out at 8.33 nM, the koff is 0.000718 s⁻¹ and the kon is 86200 M⁻¹ s⁻¹.

As to B2, the Kd was 11.7 nM, the koff worked out at 0.000465 s⁻¹ and the kon was found to be 39800 M⁻¹ s⁻¹.

Take B3: the Kd was 8.32 nM, the koff is 0.000737 s⁻¹ and the kon is 88600 M⁻¹ s⁻¹.

In the case of B4, the Kd was found to be 6.38 nM, the koff worked out at 0.000468 s⁻¹ and the kon turned out to be 73400 M⁻¹ s⁻¹.

On to B5, for which the Kd came out at 7.16 nM, the koff turned out to be 0.000624 s⁻¹ and the on-rate constant (kon) was determined as 87200 M⁻¹ s⁻¹.

As to B6, the Kd is 7.05 nM, the koff amounted to 0.000546 s⁻¹ and the kon is 77400 M⁻¹ s⁻¹.

Take B7: the Kd was found to be 6.65 nM, the dissociation rate constant (koff) worked out at 0.000495 s⁻¹ and the association rate constant (kon) came to 74500 M⁻¹ s⁻¹.

As for B8, the Kd turned out to be 6.76 nM, the off-rate (koff) worked out at 0.000529 s⁻¹ and the kon amounted to 78300 M⁻¹ s⁻¹.

As for B9, the Kd is 6.05 nM, the koff is 0.000484 s⁻¹ and the kon came out at 80100 M⁻¹ s⁻¹.

Consider B10, for which the Kd was determined as 8.18 nM and the on-rate (kon) worked out at 82600 M⁻¹ s⁻¹.

B11: the Kd was found to be 6.4 nM, the koff turned out to be 0.000453 s⁻¹ and the kon is 70800 M⁻¹ s⁻¹.

As for B12, the Kd is 9.88 nM, the koff turned out to be 0.000895 s⁻¹ and the kon was 90600 M⁻¹ s⁻¹.

As to B13, the Kd was determined as 9.41 nM, the koff was found to be 0.000803 s⁻¹ and the kon came out at 85400 M⁻¹ s⁻¹.

As to B14, the Kd turned out to be 8.69 nM, the off-rate constant (koff) came to 0.00071 s⁻¹ and the kon is 81600 M⁻¹ s⁻¹.

A further test deals with T1, recombinant human HER2 extracellular …. The experiment in a line: BLI, Protein A capture. The source holds these as a separate data set.
On to B15, for which the Kd worked out at 7.91 nM, the koff stood at 0.000786 s⁻¹ and the kon was 99300 M⁻¹ s⁻¹.

Take B16: the Kd is 8.83 nM, the koff stood at 0.000912 s⁻¹ and the kon is 103000 M⁻¹ s⁻¹.

As to B17, the Kd was 8.07 nM, the dissociation rate constant (koff) stood at 0.00085 s⁻¹ and the association rate constant (kon) was determined as 105000 M⁻¹ s⁻¹.

B18: the Kd was 1.77 nM, the koff stood at 0.000193 s⁻¹ and the kon turned out to be 109000 M⁻¹ s⁻¹.
